Assay results: the supplement of paper PMC12458215
± gives the uncertainty stated by the source.

System: HEK293T
Experiment: plasma membrane surface immunostaining intensity (anti-HA, deep receptor scanning) (arbitrary fluorescence units); higher = higher plasma membrane expression

MKSDNHSFLGDSPKAFILLGVSDRPWLELPLFVVLLLSYVLAMLGNVAIILASRVDPQLHSPMYIFLSHLSFLDLCYTTTTVPQMLVNMGSSQKTISYGGCTVQYAVFHWLGCTECIVLAAMALDRYVAICKPLHYAVLMHRALCQQLVALAWLSGFGNSFVQVVLTVQLPFCGRQVLNNFFCEVPAVIKLSCADTAVNDTILAVLVAFFVLVPLALILLSYGFIARAVLRIQSSKGRHKAFGTCSSHLMIVSLFYLPAIYMYLQPPSSYSQEQGKFISLFYSIITPTLNPFTYTLRNKDMKGALRRLLARIWRLCG [OR2B11]
plasma membrane surface immunostaining intensity (GPCR class: A (Olfactory)): 238 ± 84

MKSILDGLADTTFRTITTDLLYVGSNDIQYEDIKGDMASKLGYFPQKFPLTSFRGSPFQEKMTAGDNPQLVPADQVNITEFYNKSLSSFKENEENIQCGENFMDIECFMVLNPSQQLAIAVLSLTLGTFTVLENLLVLCVILHSRSLRCRPSYHFIGSLAVADLLGSVIFVYSFIDFHVFHRKDSRNVFLFKLGGVTASFTASVGSLFLTAIDRYISIHRPLAYKRIVTRPKAVVAFCLMWTIAIVIAVLPLLGWNCEKLQSVCSDIFPHIDETYLMFWIGVTSVLLLFIVYAYMYILWKAHSHAVRMIQRGTQKSIIIHTSEDGKVQVTRPDQARMDIRLAKTLVLILVVLIICWGPLLAIMVYDVFGKMNKLIKTVFAFCSMLCLLNSTVNPIIYALRSKDLRHAFRSMFPSCEGTAQPLDNSMGDSDCLHKHANNAASVHRAAESCIKSTVKIAKVTMSVSTDTSAEAL [CNR1]
plasma membrane surface immunostaining intensity (GPCR class: A): 130 ± 25

MKSPFYRCQNTTSVEKGNSAVMGGVLFSTGLLGNLLALGLLARSGLGWCSRRPLRPLPSVFYMLVCGLTVTDLLGKCLLSPVVLAAYAQNRSLRVLAPALDNSLCQAFAFFMSFFGLSSTLQLLAMALECWLSLGHPFFYRRHITLRLGALVAPVVSAFSLAFCALPFMGFGKFVQYCPGTWCFIQMVHEEGSLSVLGYSVLYSSLMALLVLATVLCNLGAMRNLYAMHRRLQRHPRSCTRDCAEPRADGREASPQPLEELDHLLLLALMTVLFTMCSLPVIYRAYYGAFKDVKEKNRTSEEAEDLRALRFLSVISIVDPWIFIIFRSPVFRIFFHKIFIRPLRYRSRCSNSTNMESSL [PTGDR]
plasma membrane surface immunostaining intensity (GPCR class: A): 6000 ± 81

MKVGVLWLISFFTFTDGHGGFLGKNDGIKTKKELIVNKKKHLGPVEEYQLLLQVTYRDSKEKRDLRNFLKLLKPPLLWSHGLIRIIRAKATTDCNSLNGVLQCTCEDSYTWFPPSCLDPQNCYLHTAGALPSCECHLNNLSQSVNFCERTKIWGTFKINERFTNDLLNSSSAIYSKYANGIEIQLKKAYERIQGFESVQVTQFRNGSIVAGYEVVGSSSASELLSAIEHVAEKAKTALHKLFPLEDGSFRVFGKAQCNDIVFGFGSKDDEYTLPCSSGYRGNITAKCESSGWQVIRETCVLSLLEELNKNFSMIVGNATEAAVSSFVQNLSVIIRQNPSTTVGNLASVVSILSNISSLSLASHFRVSNSTMEDVISIADNILNSASVTNWTVLLREEKYASSRLLETLENISTLVPPTALPLNFSRKFIDWKGIPVNKSQLKRGYSYQIKMCPQNTSIPIRGRVLIGSDQFQRSLPETIISMASLTLGNILPVSKNGNAQVNGPVISTVIQNYSINEVFLFFSKIESNLSQPHCVFWDFSHLQWNDAGCHLVNETQDIVTCQCTHLTSFSILMSPFVPSTIFPVVKWITYVGLGISIGSLILCLIIEALFWKQIKKSQTSHTRRICMVNIALSLLIADVWFIVGATVDTTVNPSGVCTAAVFFTHFFYLSLFFWMLMLGILLAYRIILVFHHMAQHLMMAVGFCLGYGCPLIISVITIAVTQPSNTYKRKDVCWLNWSNGSKPLLAFVVPALAIVAVNFVVVLLVLTKLWRPTVGERLSRDDKATIIRVGKSLLILTPLLGLTWGFGIGTIVDSQNLAWHVIFALLNAFQGFFILCFGILLDSKLRQLLFNKLSALSSWKQTEKQNSSDLSAKPKFSKPFNPLQNKGHYAFSHTGDSSDNIMLTQFVSNE [ADGRF1]
plasma membrane surface immunostaining intensity (GPCR class: B): 466 ± 27

MLAAAFADSNSSSMNVSFAHLHFAGGYLPSDSQDWRTIIPALLVAVCLVGFVGNLCVIGILLHNAWKGKPSMIHSLILNLSLADLSLLLFSAPIRATAYSKSVWDLGWFVCKSSDWFIHTCMAAKSLTIVVVAKVCFMYASDPAKQVSIHNYTIWSVLVAIWTVASLLPLPEWFFSTIRHHEGVEMCLVDVPAVAEEFMSMFGKLYPLLAFGLPLFFASFYFWRAYDQCKKRGTKTQNLRNQIRSKQVTVMLLSIAIISALLWLPEWVAWLWVWHLKAAGPAPPQGFIALSQVLMFSISSANPLIFLVMSEEFREGLKGVWKWMITKKPPTVSESQETPAGNSEGLPDKVPSPESPASIPEKEKPSSPSSGKGKTEKAEIPILPDVEQFWHERDTVPSVQDNDPIPWEHEDQETGEGVK [GPR151]
plasma membrane surface immunostaining intensity (GPCR class: A): 5990 ± 230

MLESHLIIYFLLAVIQFLLGIFTNGIIVVVNGIDLIKHRKMAPLDLLLSCLAVSRIFLQLFIFYVNVIVIFFIEFIMCSANCAILLFINELELWLATWLGVFYCAKVASVRHPLFIWLKMRISKLVPWMILGSLLYVSMICVFHSKYAGFMVPYFLRKFFSQNATIQKEDTLAIQIFSFVAEFSVPLLIFLFAVLLLIFSLGRHTRQMRNTVAGSRVPGRGAPISALLSILSFLILYFSHCMIKVFLSSLKFHIRRFIFLFFILVIGIYPSGHSLILILGNPKLKQNAKKFLLHSKCCQ [TAS2R1]
plasma membrane surface immunostaining intensity (GPCR class: Taste): 212 ± 85

MLGIMAWNATCKNWLAAEAALEKYYLSIFYGIEFVVGVLGNTIVVYGYIFSLKNWNSSNIYLFNLSVSDLAFLCTLPMLIRSYANGNWIYGDVLCISNRYVLHANLYTSILFLTFISIDRYLIIKYPFREHLLQKKEFAILISLAIWVLVTLELLPILPLINPVITDNGTTCNDFASSGDPNYNLIYSMCLTLLGFLIPLFVMCFFYYKIALFLKQRNRQVATALPLEKPLNLVIMAVVIFSVLFTPYHVMRNVRIASRLGSWKQYQCTQVVINSFYIVTRPLAFLNSVINPVFYFLLGDHFRDMLMNQLRHNFKSLTSFSRWAHELLLSFREK [SUCNR1]
plasma membrane surface immunostaining intensity (GPCR class: A): 528 ± 61

MLGLNHTSMSEFILVGFSAFPHLQLMLFLLFLLMYLFTLLGNLLIMATVWSERSLHTPMYLFLCVLSVSEILYTVAIIPRMLADLLSTQRSIAFLACASQMFFSFSFGFTHSFLLTVMGYDRYVAICHPLRYNVLMSPRGCACLVGCSWAGGSVMGMVVTSAIFQLTFCGSHEIQHFLCHVPPLLKLACGNNVPAVALGVGLVCIMALLGCFLLILLSYAFIVADILKIPSAEGRNKAFSTCASHLIVVIVHYGFASVIYLKPKGPHSQEGDTLMATTYAVLTPFLSPIIFSLRNKELKVAMKRTFLSTLYSSGT [OR10H2]
plasma membrane surface immunostaining intensity (GPCR class: A (Olfactory)): 112 ± 22

MLGPAVLGLSLWALLHPGTGAPLCLSQQLRMKGDYVLGGLFPLGEAEEAGLRSRTRPSSPVCTRFSSNGLLWALAMKMAVEEINNKSDLLPGLRLGYDLFDTCSEPVVAMKPSLMFLAKAGSRDIAAYCNYTQYQPRVLAVIGPHSSELAMVTGKFFSFFLMPQVSYGASMELLSARETFPSFFRTVPSDRVQLTAAAELLQEFGWNWVAALGSDDEYGRQGLSIFSALAAARGICIAHEGLVPLPRADDSRLGKVQDVLHQVNQSSVQVVLLFASVHAAHALFNYSISSRLSPKVWVASEAWLTSDLVMGLPGMAQMGTVLGFLQRGAQLHEFPQYVKTHLALATDPAFCSALGEREQGLEEDVVGQRCPQCDCITLQNVSAGLNHHQTFSVYAAVYSVAQALHNTLQCNASGCPAQDPVKPWQLLENMYNLTFHVGGLPLRFDSSGNVDMEYDLKLWVWQGSVPRLHDVGRFNGSLRTERLKIRWHTSDNQKPVSRCSRQCQEGQVRRVKGFHSCCYDCVDCEAGSYRQNPDDIACTFCGQDEWSPERSTRCFRRRSRFLAWGEPAVLLLLLLLSLALGLVLAALGLFVHHRDSPLVQASGGPLACFGLVCLGLVCLSVLLFPGQPSPARCLAQQPLSHLPLTGCLSTLFLQAAEIFVESELPLSWADRLSGCLRGPWAWLVVLLAMLVEVALCTWYLVAFPPEVVTDWHMLPTEALVHCRTRSWVSFGLAHATNATLAFLCFLGTFLVRSQPGCYNRARGLTFAMLAYFITWVSFVPLLANVQVVLRPAVQMGALLLCVLGILAAFHLPRCYLLMRQPGLNTPEFFLGGGPGDAQGQNDGNTGNQGKHE [TAS1R3]
plasma membrane surface immunostaining intensity (GPCR class: Taste): 122 ± 9.1
